Values quoted from earlier work in PMC3925188.
pKd: −log10 of the molar value. “And” between values parts separate entries of the source, which are not always exact repeats. Equal values may be shown once.

Biological target: Histone H3K4me3 H3K4me3 (Homo sapiens) (UniProt P68431)

KMT2A PHD3, sequence (Q03164 1566-1627): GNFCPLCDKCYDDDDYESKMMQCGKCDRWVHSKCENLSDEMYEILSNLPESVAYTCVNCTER

For KMT2A PHD3 (from UniProt Q03164), the pKd is listed as 4.52 and 4.72 and 5.40.
